B2: recombinant human TIMP3 (tissue inhibitor of metalloproteinases-3) (other)
chain: CTCSPSHPQDAFCNSDIVIRAKVVGKKLVKEGPFGTLVYTIKQMKMYRGFTKMPHVQYIHTEASESLCGLKLEVNKYQYLLTGRVYDGKMYTGLCNFVERWDQLTLSQRKGLNYRYHLGCNCKIKSCYYLPCFVTSKNECLWTDMLSNFGYPGYQSKHYACIRQKGGYCSWYRGWAPPDKSIINATDP
notes: Radio-iodinated in some assays; also called rTIMP3; recombinant TIMP3

Assays:
KDR = target: T1, KDR (Homo sapiens, UniProt P35968); test: [125I]VEGF binding to the surface of PAE-KDR cells; settings: same conditions as TIMP3
T1 construct: To determine whether these receptor isoforms represent full-length VEGFR-2; expressed in transfected cells; host or cells: porcine aortic endothelial (PAE) cells
Description: Radioligand binding is expressed as percent binding and is the mean±s.e.m. of triplicate samples. […] All values are expressed as mean±s.e.m. of triplicate samples. […] Binding is expressed as mean±s.e.m.
Data were analyzed by Scatchard plot analyses.

KDR (VEGFR2) = KDR (VEGFR2) (Homo sapiens, UniProt P35968); test: ELISA of sKDR binding to VEGF-coated plates
Description: In the assay, 96 well immunoplates were coated with VEG (80 ng/ml) as per standard procedures.

[1] = tested on: Choroidal Neovascularization (CNV); test: Laser-induced choroidal neovascularization (CNV) mouse model of AMD; assay type: in vivo, C57BL6 mice; settings: single intravitreal injection on day 3; examined 14 days after laser
Description: We next tested the ability of intravitreal TIMP-3 tail and loop 6 peptide to inhibit Choroidal Neovascularization (CNV), a mouse model of age-related macular degeneration (AMD). C57BL6 mice (n=5) in each each group were lasered to induce CNV. On day 3 intravitreal injections [single dose] of control N terminal peptide (116) or TIMP-3 peptides (Tail peptide (SEQ ID NO: 13), Loop 6 (SEQ ID NO: 12), and Loop 5 (SEQ ID NO: 11) were administered. Animals were sacrificed at 14 days following laser and whole mount retinas were examined for evidence of CNV following injection of fluorescein dextran marker.

VEGF = target: T2, VEGF (Homo sapiens, UniProt P15692); test: Solid-phase direct binding of [125I]VEGF to wells coated with TIMPs
T2 construct: purchased Genentech (gift, not bought)
T2 sequence (P15692 27-191 isoform P15692-4): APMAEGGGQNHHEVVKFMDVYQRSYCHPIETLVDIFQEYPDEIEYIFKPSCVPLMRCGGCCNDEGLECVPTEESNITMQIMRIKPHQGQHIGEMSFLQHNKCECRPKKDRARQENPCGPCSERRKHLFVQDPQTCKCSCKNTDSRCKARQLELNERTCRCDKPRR

PAE-KDR cells = test: Endothelial cell migration toward VEGF (modified Boyden chamber); assay type: cell-based, porcine; settings: added exogenously; VEGF165 10 ng/ml
Description: (B) Comparison of the effects of rTIMP3, rTIMP1 and BB3103 on VEGF165-induced migration of PAE-KDR cells. […] In all migration experiments, migrating cell number is expressed as mean±s.e.m. of quadruplicate samples. All experiments were done in triplicate. Open symbols, KDR-vector; closed symbols, KDR-TIMP3.*, P<0.01; **, P<0.05.
A modified Boyden chamber assay for migration and proliferation assays were carried out as described.

[2] = tested on: chick embryo chorioallantoic membrane (CAM); test: Chick embryo chorioallantoic membrane (CAM) assay of VEGF-mediated angiogenesis; assay type: in vivo, chicken
Excerpt: The CAM assay was done as described with slight modifications. Fertilized 3-day-old white Leghorn eggs (Sunnyside, Beaver Dam, Wis.) were cracked and embryos with the yolk intact were placed in glass-bottomed Petri dishes. […] Angiogenesis was reported as the angiogenic index (mean number of tertiary branchpoints from experimental conditions minus the mean number of branchpoints from buffer controls with no angiogenic stimulator).

VEGFR1 (FLT-1) = VEGFR1 (FLT-1) (Homo sapiens, UniProt P17948); settings: read-out: Kd of VEGF binding to VEGFR1; cited from earlier work
PAEKDR cells [3] = test: VEGF-stimulated migration (modified Boyden chamber) of transfected PAEKDR cells; assay type: cell-based, porcine; settings: mock cells
Description: A modified Boyden chamber assay was carried out as described previously 34. Briefly, 8.0 μm pore PVPF polycarbonate membranes were pre-coated with 100 μg/ml collagen type I in 0.2 N acetic acid (Cohesion technologies, INC. Pala Alto, Calif.). […] Chamber was then incubated for 4 hrs at 37° C. in a 5% CO2 humidified incubator. Cells remaining on the top of the filter were removed. Cells on the bottom surface of the filter were fixed, stained and mounted. The number of migrating cells per well was counted microscopically.

PAEKDR cells [4] = test: VEGF-stimulated proliferation ([3H]thymidine) of transfected PAEKDR cells; assay type: cell-based, porcine; settings: mock cells
Description: Cells were seeded at a density of 5000 cells/well in 24 well culture plates and cultured for 24 h in growth medium. […] High molecular weight DNA was precipitated using 5% trichloroacetic acid at 4° C. for 30 min After two washes with ice-cold H2O, 3H radioactivity was solubilized in 1 N NaOH for 20 min at room temperature, acidified by addition of 2 N HCl, and measured using a liquid scintillation counter. Each sample was assayed in triplicate and the assays were repeated at least twice.

endothelial cells = test: Competitive displacement of [125I]TIMP3 from the surface of endothelial cells; assay type: binding; settings: unlabeled VEGF 2 μg/ml, TIMP3 10 μg/ml
Description: Immunoprecipitation of cell lysates with antibodies specific for TIMP3 was followed by immunoblotting with antibodies specific for KDR (top). As a control for KDR receptor, cell lysates were immunoprecipitated with anti-bodies specific for KDR and probed with antibodies specific for KDR Immunoprecipitation with antibodies specific for KDR and immunoblotting with antibodies specific for TIMP3 (bottom) were carried out on PAE-KDR cells exposed to recombinant TIMP3 or PAE-KDR-vector and PAE-KDR cells overexpressing TIMP3, to confirm the interaction. […] Competition with unlabeled TIMP3 was carried out to ensure specificity. […] (E) In vivo interaction of KDR and TIMP3 in human placenta. Immunoprecipitation using antibodies specific TIMP3 (top) and KDR (bottom) was followed by immunoblotting with antibodies specific for KDR (top) and TIMP3 (bottom).

[5] = target: B2; test: solid-phase binding of [125I]VEGF to wells coated with TIMP3
recombinant human TIMP1 = target: T3, recombinant human TIMP1 (human, UniProt P01033 24-207); test: solid-phase binding of [125I]VEGF to wells coated with TIMP1
T3 construct: also called rTIMP1

recombinant human TIMP2 = target: T4, recombinant human TIMP2 (human, UniProt P16035 27-220); test: solid-phase binding of [125I]VEGF to wells coated with TIMP2
T4 construct: also called rTIMP2

[6] = target: T5, soluble KDR-IgG (receptor IgG chimeric protein) (UniProt P35968 20-764, limits assumed); test: solid-phase assay: displacement of [125I]VEGF165 from soluble KDR-IgG by TIMP3
T5 construct: Bought from R&D Systems; also called KDR-Fc; sKDR; not shown: IgG Fc portion
Description: Soluble KDR-Fc or FLT1-Fc (50 ng) was added to each well. […] After washing, the bound protein was solubilized with 1% SDS and 1 M NaOH and radioactivity measured in a γ-counter.

[7] = target: T6, KDR (VEGFR2) on the surface of PAE-KDR cells (human, UniProt P35968 20-1356); test: inhibition of [125I]VEGF binding to PAE-KDR cells by pretreatment with TIMP3
T6 construct: whole, on cells; also called KDR-vector
T6 sequence (P35968 20-1356): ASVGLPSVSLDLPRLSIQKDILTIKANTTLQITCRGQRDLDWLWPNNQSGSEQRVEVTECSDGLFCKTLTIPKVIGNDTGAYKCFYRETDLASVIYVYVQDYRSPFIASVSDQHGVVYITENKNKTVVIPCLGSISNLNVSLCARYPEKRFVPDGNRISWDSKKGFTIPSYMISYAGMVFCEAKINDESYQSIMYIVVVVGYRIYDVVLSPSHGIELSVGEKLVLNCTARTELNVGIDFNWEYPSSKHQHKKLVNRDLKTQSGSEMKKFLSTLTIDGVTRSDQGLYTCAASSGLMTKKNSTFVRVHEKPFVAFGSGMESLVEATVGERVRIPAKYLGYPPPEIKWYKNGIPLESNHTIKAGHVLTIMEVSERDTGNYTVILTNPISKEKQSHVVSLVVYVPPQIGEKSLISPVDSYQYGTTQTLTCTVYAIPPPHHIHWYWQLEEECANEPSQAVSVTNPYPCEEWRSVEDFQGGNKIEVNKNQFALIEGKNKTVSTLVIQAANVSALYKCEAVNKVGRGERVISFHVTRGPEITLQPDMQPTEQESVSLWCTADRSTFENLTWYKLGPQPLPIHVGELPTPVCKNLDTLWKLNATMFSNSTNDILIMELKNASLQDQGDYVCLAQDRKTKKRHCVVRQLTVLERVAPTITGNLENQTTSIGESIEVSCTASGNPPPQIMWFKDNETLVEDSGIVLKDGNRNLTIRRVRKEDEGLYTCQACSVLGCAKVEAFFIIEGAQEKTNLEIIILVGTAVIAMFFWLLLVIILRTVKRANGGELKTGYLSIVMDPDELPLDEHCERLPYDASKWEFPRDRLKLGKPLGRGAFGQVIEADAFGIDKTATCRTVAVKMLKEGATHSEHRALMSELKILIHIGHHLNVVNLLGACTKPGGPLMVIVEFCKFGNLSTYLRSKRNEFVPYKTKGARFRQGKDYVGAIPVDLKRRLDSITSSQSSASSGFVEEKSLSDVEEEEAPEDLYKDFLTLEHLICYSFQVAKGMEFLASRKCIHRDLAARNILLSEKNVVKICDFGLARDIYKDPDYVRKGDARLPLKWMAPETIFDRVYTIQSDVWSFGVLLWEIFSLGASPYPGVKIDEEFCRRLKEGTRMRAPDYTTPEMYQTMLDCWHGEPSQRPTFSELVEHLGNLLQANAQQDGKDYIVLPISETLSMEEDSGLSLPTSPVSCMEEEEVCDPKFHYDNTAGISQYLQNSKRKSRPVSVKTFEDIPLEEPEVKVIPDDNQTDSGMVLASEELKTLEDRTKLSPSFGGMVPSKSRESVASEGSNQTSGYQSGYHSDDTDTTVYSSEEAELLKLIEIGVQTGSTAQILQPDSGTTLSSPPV

Chain of KDR (VEGFR2) (P35968 20-764 limits assumed): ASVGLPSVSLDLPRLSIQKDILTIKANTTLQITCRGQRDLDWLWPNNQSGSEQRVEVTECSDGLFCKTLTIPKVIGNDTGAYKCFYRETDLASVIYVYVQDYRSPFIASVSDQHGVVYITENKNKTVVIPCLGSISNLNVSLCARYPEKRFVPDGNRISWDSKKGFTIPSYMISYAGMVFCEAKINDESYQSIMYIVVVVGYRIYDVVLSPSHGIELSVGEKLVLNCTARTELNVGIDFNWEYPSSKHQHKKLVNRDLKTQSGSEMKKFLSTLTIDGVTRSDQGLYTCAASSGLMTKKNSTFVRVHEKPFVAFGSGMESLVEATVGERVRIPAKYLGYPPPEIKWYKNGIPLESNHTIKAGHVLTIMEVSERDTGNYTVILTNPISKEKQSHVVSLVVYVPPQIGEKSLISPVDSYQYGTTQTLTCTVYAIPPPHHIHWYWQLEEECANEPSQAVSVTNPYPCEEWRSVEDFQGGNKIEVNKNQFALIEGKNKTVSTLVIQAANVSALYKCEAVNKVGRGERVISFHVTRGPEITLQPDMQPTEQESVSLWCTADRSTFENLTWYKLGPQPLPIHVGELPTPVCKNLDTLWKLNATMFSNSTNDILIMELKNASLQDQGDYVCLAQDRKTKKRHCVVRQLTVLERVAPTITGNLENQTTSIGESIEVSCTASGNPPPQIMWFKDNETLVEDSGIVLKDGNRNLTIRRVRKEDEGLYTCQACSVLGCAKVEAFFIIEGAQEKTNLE
T1 sequence (P35968 20-1356): as the sequence (P35968 20-1356) above
T3 sequence (P01033 24-207 limits assumed): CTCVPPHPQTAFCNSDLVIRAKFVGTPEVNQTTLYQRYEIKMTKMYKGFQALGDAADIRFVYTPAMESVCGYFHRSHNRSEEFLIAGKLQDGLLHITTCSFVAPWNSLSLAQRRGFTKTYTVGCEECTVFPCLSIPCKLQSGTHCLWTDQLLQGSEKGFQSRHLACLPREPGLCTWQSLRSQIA
Chain of VEGFR1 (FLT-1) (P17948 27-1338, species assumed): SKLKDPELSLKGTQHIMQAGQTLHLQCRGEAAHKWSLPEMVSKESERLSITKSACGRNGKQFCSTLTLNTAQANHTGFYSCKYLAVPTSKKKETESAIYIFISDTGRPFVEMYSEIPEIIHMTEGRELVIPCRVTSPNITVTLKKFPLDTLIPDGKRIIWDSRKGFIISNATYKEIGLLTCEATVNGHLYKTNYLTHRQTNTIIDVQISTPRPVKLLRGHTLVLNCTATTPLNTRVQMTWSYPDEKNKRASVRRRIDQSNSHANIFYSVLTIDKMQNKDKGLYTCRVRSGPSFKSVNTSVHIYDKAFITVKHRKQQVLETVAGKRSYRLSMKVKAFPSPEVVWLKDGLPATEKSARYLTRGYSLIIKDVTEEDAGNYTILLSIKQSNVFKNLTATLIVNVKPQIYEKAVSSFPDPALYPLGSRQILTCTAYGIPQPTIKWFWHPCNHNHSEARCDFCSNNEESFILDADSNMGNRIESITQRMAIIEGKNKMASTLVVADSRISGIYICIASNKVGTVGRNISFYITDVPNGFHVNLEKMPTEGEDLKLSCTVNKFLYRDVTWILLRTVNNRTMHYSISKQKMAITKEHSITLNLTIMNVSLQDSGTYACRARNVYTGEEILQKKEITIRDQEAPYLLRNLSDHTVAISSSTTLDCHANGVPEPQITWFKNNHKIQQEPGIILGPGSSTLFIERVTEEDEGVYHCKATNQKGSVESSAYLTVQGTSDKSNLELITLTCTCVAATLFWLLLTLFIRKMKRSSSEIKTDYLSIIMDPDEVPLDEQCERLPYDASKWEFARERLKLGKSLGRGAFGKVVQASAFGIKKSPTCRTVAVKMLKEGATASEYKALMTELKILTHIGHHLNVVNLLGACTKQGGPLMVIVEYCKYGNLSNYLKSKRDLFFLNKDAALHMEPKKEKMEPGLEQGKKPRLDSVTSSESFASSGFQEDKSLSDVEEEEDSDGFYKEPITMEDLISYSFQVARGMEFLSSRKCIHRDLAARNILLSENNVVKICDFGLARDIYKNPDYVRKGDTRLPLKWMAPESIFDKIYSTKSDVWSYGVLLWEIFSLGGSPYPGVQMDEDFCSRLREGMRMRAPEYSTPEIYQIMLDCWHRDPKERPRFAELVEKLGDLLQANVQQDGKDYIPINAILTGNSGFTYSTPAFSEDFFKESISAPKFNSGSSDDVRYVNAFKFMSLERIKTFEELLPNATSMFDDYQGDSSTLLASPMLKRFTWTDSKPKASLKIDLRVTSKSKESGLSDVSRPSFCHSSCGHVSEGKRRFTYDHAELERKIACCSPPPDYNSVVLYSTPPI
T5 sequence (P35968 20-764 limits assumed, change not shown): as the sequence (P35968 20-764 limits assumed) above

With O=C(NO)[C@@H](Cc1ccccc1)NS(=O)(=O)c1ccc(-c2ccccc2)cc1 [MMP-2 and MMP-9 inhibitor, (2R)-[(4-biphenylylsulfonyl)amino]-N-hydroxy-3-phenylpropionamide] as the molecule, how does the “inhibition of binding of VEGF to PAE-KDR cells” value (KDR) read?
Its value is “could not inhibit binding of VEGF”.

Which “inhibition of VEGF binding to KDR at lower doses, comparison of peptides” value (KDR (VEGFR2); 0.03 μM and 0.1 μM) does the source give for “GYCSWYRGWAPPDKSIINATDP (listed as Homo sapiens) [tail peptide, synthetic peptide from the tail portion of the C-terminal region of TIMP-3]” here?
Its value is “inhibited VEGF binding better than the Loop 6 peptide and the Loop 5 peptide”.

What about the “inhibition of VEGF binding to KDR” value (KDR (VEGFR2); 3 μM) of the same molecule?
Its value is “inhibit VEGF binding”.

And the “inhibition of VEGF binding to KDR compared with recombinant TIMP-3” value (KDR (VEGFR2); 3 μM)?
Its value is “same levels as recombinant TIMP-3”.

What about the “inhibition of CNV (fluorescein dextran, whole mount retina)” value [1] of the same molecule?
Its value is “inhibit CNV”.

With “KNECLWTDMLSNFGYPGYQSKHYACIRQKG (listed as Homo sapiens) [loop 6 peptide, synthetic peptide from loop-6 of the C-terminal region of TIMP-3]” as the molecule, how does the “inhibition of VEGF binding to KDR” value (KDR (VEGFR2); 3 μM) read?
The value was “inhibit VEGF binding”.

And the “inhibition of CNV (fluorescein dextran, whole mount retina)” value [1]?
Its value is “inhibit CNV”.

With “TIMP1: recombinant human TIMP1 expressed in NSO myeloma cells [reference compound]” as the molecule, how does the “direct binding of [125I]VEGF to coated TIMP” value (VEGF) read?
The value was “did not detect direct binding”.

What about the “inhibition of binding of VEGF to PAE-KDR cells” value (KDR) of the same molecule?
Its value is “could not inhibit the binding of VEGF to KDR”.

What about the “inhibition of endothelial cell migration toward VEGF” value (PAE-KDR cells) of the same molecule?
The value was “not observed”.

What about the “angiogenic index (tertiary branchpoints of capillaries)” value ([2]; VEGF plus inhibitor) of the same molecule?
The value was 172±8.

Which Kd (VEGFR1 (FLT-1)) does the source give for VEGF [reference compound] here?
Its Kd is 0.015 to 0.1 nM.

And the “VEGF concentration of maximum migratory effect” value (PAEKDR cells [3])?
Its value is 50 ng/mL.

What about the “VEGF concentration of maximum proliferative activity” value (PAEKDR cells [4]) of the same molecule?
The value was 15 ng/mL.

What about the “inhibition of binding of labeled TIMP3 to the surface of endothelial cells” value (endothelial cells) of the same molecule?
The value was “could inhibit the binding of labeled TIMP3”.

What about the “angiogenic index (tertiary branchpoints of capillaries)” value ([2]; VEGF alone) of the same molecule?
The value was 190±5.

B1: recombinant human VEGF165 (ligand, UniProt P15692-4 27-191, looked up)
chain: APMAEGGGQNHHEVVKFMDVYQRSYCHPIETLVDIFQEYPDEIEYIFKPSCVPLMRCGGCCNDEGLECVPTEESNITMQIMRIKPHQGQHIGEMSFLQHNKCECRPKKDRARQENPCGPCSERRKHLFVQDPQTCKCSCKNTDSRCKARQLELNERTCRCDKPRR
Does B1 bind [5]?
Result: no binding

Does B1 bind (recombinant human TIMP1)?
Result: no binding

Does B1 bind (recombinant human TIMP2)?
Result: no binding

Which IC50 [6] does the source give for B2 here?
Its IC50 is 2.9 µg/mL.

And the IC50 [7]?
Its IC50 is 3.3 to 4.5 µg/mL.

B3: C-terminal TIMP3: chimera of residues 1-126 of TIMP-2 and residues 122-188 of TIMP3 representing the isolated C-terminal domain of TIMP3 (protein, listed as Homo sapiens)
chain: CSCSPVHPQQAFCNADVVIRAKAVSEKEVDSGNDIYGNPIKRIQYEIKQIKMFKGPEKDIEFIYTAPSSAVCGVSLDVGGKKEYLIAGKAEGDGKMHITLCDFIVPWDTLSTTQKKSLNHRYQMGCCKIKSCYYLPCFVTSKNECLWTDMLSNFGYPGYQSKHYACIRQKGGYCSWYRGWAPPDKSIINATDP
With B3 as the molecule, how does the “inhibition of VEGF binding to KDR by TIMP3 domains” value (KDR (VEGFR2); preliminary studies) read?
The value was “inhibits binding of VEGF to KDR”.

Source: patent US8431396B2, “Anti-angiogenic peptides” (The Cleveland Clinic Foundation, priority 2003, dated 2013)
